B1: TRBP (natural protein, human, UniProt Q15633 1-366, looked up)
chain: MSEEEQGSGTTTGCGLPSIEQMLAANPGKTPISLLQEYGTRIGKTPVYDLLKAEGQAHQPNFTFRVTVGDTSCTGQGPSKKAAKHKAAEVALKHLKGGSMLEPALEDSSSFSPLDSSLPEDIPVFTAAAAATPVPSVVLTRSPPMELQPPVSPQQSECNPVGALQELVVQKGWRLPEYTVTQESGPAHRKEFTMTCRVERFIEIGSGTSKKLAKRNAAAKMLLRVHTVPLDARDGNEVEPDDDHFSIGVGSRLDGLRNRGPGCTWDSLRNSVGEKILSLRSCSLGSLGALGPACCRVLSELSEEQAFHVSYLDIEELSLSGLCQCLVELSTQPATVCHGSATTREAARGEAARRALQYLKIMAGSK
B2: PACT (natural protein, human, UniProt O75569 1-313, looked up)
chain: MSQSRHRAEAPPLEREDSGTFSLGKMITAKPGKTPIQVLHEYGMKTKNIPVYECERSDVQIHVPTFTFRVTVGDITCTGEGTSKKLAKHRAAEAAINILKANASICFAVPDPLMPDPSKQPKNQLNPIGSLQELAIHHGWRLPEYTLSQEGGPAHKREYTTICRLESFMETGKGASKKQAKRNAAEKFLAKFSNISPENHISLTNVVGHSLGCTWHSLRNSPGEKINLLKRSLLSIPNTDYIQLLSEIAKEQGFNITYLDIDELSANGQYQCLAELSTSPITVCHGSGISCGNAQSDAAHNALQYLKIIAERK
B3: Argonaute2 (Ago2) (enzyme)
chain: not shown

Each binder was assayed against human Dicer (human, UniProt Q9UPY3 1-1922) (assay: in vitro reconstitution of the complex).
human Dicer, sequence (Q9UPY3 whole entry): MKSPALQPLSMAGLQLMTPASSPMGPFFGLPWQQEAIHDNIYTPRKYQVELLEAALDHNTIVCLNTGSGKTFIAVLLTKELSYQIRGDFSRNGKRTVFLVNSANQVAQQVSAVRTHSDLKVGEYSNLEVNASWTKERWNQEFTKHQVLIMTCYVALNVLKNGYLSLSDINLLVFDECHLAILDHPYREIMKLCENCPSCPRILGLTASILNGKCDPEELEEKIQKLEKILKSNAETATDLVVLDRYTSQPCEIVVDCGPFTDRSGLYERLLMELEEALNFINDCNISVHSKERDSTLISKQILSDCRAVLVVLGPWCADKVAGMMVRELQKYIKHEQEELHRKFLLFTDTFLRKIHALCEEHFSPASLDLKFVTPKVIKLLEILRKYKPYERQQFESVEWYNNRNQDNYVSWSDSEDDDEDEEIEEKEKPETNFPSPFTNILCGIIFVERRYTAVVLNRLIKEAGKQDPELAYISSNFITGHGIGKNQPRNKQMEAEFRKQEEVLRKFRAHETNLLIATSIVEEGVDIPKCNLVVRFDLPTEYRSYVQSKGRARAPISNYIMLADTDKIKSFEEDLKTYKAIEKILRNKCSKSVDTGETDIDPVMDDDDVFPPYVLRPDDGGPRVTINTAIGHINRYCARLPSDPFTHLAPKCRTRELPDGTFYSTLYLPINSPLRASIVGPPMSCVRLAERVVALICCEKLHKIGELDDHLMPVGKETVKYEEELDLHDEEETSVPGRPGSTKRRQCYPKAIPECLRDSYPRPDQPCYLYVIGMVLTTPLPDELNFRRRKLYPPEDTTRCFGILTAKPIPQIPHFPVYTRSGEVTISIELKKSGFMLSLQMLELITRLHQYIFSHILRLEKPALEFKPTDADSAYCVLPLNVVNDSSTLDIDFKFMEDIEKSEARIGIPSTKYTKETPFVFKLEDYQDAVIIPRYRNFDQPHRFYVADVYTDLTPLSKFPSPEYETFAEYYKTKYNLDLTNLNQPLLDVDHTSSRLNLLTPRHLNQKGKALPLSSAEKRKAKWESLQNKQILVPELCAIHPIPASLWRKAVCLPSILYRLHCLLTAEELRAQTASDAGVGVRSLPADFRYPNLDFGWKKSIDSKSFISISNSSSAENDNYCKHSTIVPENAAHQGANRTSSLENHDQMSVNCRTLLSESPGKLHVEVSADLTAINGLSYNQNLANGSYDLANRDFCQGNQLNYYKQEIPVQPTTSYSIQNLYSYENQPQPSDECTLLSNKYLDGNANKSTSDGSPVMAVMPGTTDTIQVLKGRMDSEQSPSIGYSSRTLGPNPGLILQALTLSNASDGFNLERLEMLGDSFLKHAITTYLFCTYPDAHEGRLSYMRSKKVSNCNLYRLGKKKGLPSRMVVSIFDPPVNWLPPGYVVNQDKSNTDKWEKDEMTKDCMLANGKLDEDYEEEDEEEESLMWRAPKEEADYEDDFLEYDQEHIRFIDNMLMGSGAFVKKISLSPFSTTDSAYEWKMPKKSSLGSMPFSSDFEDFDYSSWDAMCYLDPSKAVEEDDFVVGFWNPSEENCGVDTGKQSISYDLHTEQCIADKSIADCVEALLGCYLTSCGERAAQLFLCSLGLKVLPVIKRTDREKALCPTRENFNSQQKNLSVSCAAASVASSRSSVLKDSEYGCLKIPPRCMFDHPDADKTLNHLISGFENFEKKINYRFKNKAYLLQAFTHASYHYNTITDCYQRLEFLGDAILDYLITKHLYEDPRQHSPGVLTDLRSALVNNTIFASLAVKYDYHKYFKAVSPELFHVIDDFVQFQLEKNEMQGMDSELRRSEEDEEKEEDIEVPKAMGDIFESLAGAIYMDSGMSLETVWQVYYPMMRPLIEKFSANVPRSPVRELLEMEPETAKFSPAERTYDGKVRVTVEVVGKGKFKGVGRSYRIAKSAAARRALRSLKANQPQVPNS
B1: binds.
B2: binds.
B3: binds.
